Laboratory results: publication PMC3386213 (Molecular Biology of the Cell, 2012)

Target: the molecule itself
Experiment: cross-linking

B1: HA-tagged KCTD6 N-terminal BTB domain (domain or fragment)
chain: MDNGDWGYMMTDPVTLNVGGHLYTTSLTTLTRYPDSMLGAMFGGDFPTARDPQGNYFIDRDGPLFRYVLNFLRTSELTLPLDFKEFDLLRKEADFYQIEPLIQCLNDPKPLYPMDTFEEVVELSSTRKLSKYSNPVAVIITQLTITT
stoichiometry N: 2
